Assay results as given in PMC6451123, “The G3-U70-independent tRNA recognition by human mitochondrial alanyl-tRNA synthetase” (Nucleic Acids Research, 2019).

Biological target: the molecule itself
Assay: SEC; gel filtration of the purified enzyme; apparent molecular mass from the elution volumes of three standard proteins (apoferritin 443 kDa, yeast alcohol dehydrogenase 150 kDa, bovine serum albumin 66 kDa)

B1: E. coli AlaRS (enzyme, UniProt P00957 1-876, looked up)
chain: MSKSTAEIRQAFLDFFHSKGHQVVASSSLVPHNDPTLLFTNAGMNQFKDVFLGLDKRNYSRATTSQRCVRAGGKHNDLENVGYTARHHTFFEMLGNFSFGDYFKHDAIQFAWELLTSEKWFALPKERLWVTVYESDDEAYEIWEKEVGIPRERIIRIGDNKGAPYASDNFWQMGDTGPCGPCTEIFYDHGDHIWGGPPGSPEEDGDRYIEIWNIVFMQFNRQADGTMEPLPKPSVDTGMGLERIAAVLQHVNSNYDIDLFRTLIQAVAKVTGATDLSNKSLRVIADHIRSCAFLIADGVMPSNENRGYVLRRIIRRAVRHGNMLGAKETFFYKLVGPLIDVMGSAGEDLKRQQAQVEQVLKTEEEQFARTLERGLALLDEELAKLSGDTLDGETAFRLYDTYGFPVDLTADVCRERNIKVDEAGFEAAMEEQRRRAREASGFGADYNAMIRVDSASEFKGYDHLELNGKVTALFVDGKAVDAINAGQEAVVVLDQTPFYAESGGQVGDKGELKGANFSFAVEDTQKYGQAIGHIGKLAAGSLKVGDAVQADVDEARRARIRLNHSATHLMHAALRQVLGTHVSQKGSLVNDKVLRFDFSHNEAMKPEEIRAVEDLVNTQIRRNLPIETNIMDLEAAKAKGAMALFGEKYDERVRVLSMGDFSTELCGGTHASRTGDIGLFRIISESGTAAGVRRIEAVTGEGAIATVHADSDRLSEVAHLLKGDSNNLADKVRSVLERTRQLEKELQQLKEQAAAQESANLSSKAIDVNGVKLLVSELSGVEPKMLRTMVDDLKNQLGSTIIVLATVVEGKVSLIAGVSKDVTDRVKAGELIGMVAQQVGGKGGGRPDMAQAGGTDAAALPAALASVKGWVSAKLQ
notes: Escherichia coli alanyl-tRNA synthetase; calculated molecular mass of 96 kDa; Construct, tags and host are not described; The calculated mass of 96 kDa would fit the whole protein; also called EcAlaRS; source: purified
B1: binds.
